# B1: TPR t1 (parent)
# chain: GACCAAUCUGCCCUCAGAGCUCGAGAACAUCUUCGGAUGCAGAGGAGGCAGGCUUCGGUGGCGCGAUAGCGCCAACGUCCUCAACCUCCAAUGCAUCCCACCACAUGAUGAUGCCUGAAGAGCCUUGGUUUUUUG
# Variants of: B1
# Assay: polymerase ribozyme fitness, log enrichment relative to wild type (log ratio); higher = more active; in vitro selection for triplet polymerase activity
# Procedure, shortened: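 Genotype fitness is the logarithm of its enrichment divided by wild-type enrichment, using inverse-variance-weighted averages of replicates. That logarithm is base 2. Enrichment was measured by Illumina sequencing of input and output libraries from one triplicate in vitro selection round, with frozen incubation at −7 °C, on PCR-built, transcribed mutant libraries of each subunit of a heterodimeric triplet polymerase ribozyme, retaining genotypes with ≥10 input reads and ≥1 read per output.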
row,Variant,polymerase ribozyme fitness (log ratio)
1,A100C C102U,-5.66
2,G39U C89U A118U,-0.539
3,C15A C62U,-2.04
4,A68U G93U C101A G113U G117A,-6.33
5,C8U A16U G47A C101A C124U,-1.94
6,C3A C20U G65A C101A A105C C114U U131G,-7.29
7,G44C U116C C124A,-0.551
8,C4U C49U C97U G128U,-2.93
9,G47C C70U G120C,-0.515
10,A26G C70G G113A,-5.88
11,G19A C85U C114G,-2.91
12,C101A C115A,-1.02
13,A2U C8G G39C G61C C79U C101A,-4.35
14,A2C G36C C62U,-2.66
15,C8U C62A C114G U126A,-3.89
16,C8A C80A,-1.88
17,C53U C94A,-1.44
18,G57C U78C U87C C102A C124A,-0.477
19,A5U G19A G52A G57A A95G,-4.08
20,A66U A83G C86U,-2.39
21,U14G A50C C56G C89U A95G,-3.5
22,G42A G60C C82A,-3.4
23,C12U,0.39
24,U9A C124U,1.21

row,Variant,polymerase ribozyme fitness (log ratio)
1,A43U A121G,1.17
2,A74G A91G G93C G120C,-2.64
3,A121G U132A,1.94
4,C34A G44U G71A C114A,-6.89
5,C56U A90U U92A,-1.45
6,C13A G52U C70U,-2.88
7,C49A U55G U125A G127A,-1.79
8,A6U G60U G110U,-0.996
9,U7G C8A G63U G65C,-6.38
10,A68C C72U U78C C114G G120A C123U,-7.64
11,C64U U112A,0.346
12,A90G C102A G117A,-5.32
13,C28G A50C G61A C88A,-3.77
14,G35A C70U C79G C115A U133A,-7.56
15,G10U U92G,-3.71
16,A26U A50C G58A,-4.45
17,A29G C72U G135U,-1.91
18,U9G A26G G45U C73U C99U U112A,-4.85
19,C114U G120U,-2.8
20,C3U U14A A111U G120U,-5.57
21,A95C G113U,-3.39
22,U9C C15U G42C,-0.305
23,G39A G117C,-4.05
24,G52A C73A,-0.179

row,Variant,polymerase ribozyme fitness (log ratio)
1,G39A U92A,-3.56
2,A26G C28U G35A U87G C124A,-4.92
3,C12G U130C,0.663
4,C3A C11A A16U C49A G117A,-4.16
5,C15G G69U C94A U109A C124A,-4.14
6,G63C U81C A90U,-3.06
7,G39U C73U C114U G120A G127C,-3.02
8,A66C C85A,-3.06
9,C8U A27U C34U G48U G60A C98U U112C G117U,-7.25
10,C4G G63U C123A,-1.09
11,C15U G39A C98U,-3.87
12,G42C U87A,-1.23
13,A24G C73U C88U C101U,-2.26
14,U9G G120U,1.06
15,C34A C53U C98A,-1.98
16,G69U A84C C124A,1.33
17,A18U A29G A43U G52A G60A C88U C94U,-5.06
18,G17C C20G C73A C88U C99A A100C,-4.19
19,C13G C62A C82A,-3.18
20,C102G U106C C114G C123A,-6.08
21,C13G C53G,-1.53
22,C3U C11U G71A A119G,-0.255
23,C3A A43U G60C C82G,-5.1
24,A46U G71A C82G U87G,-1.78

row,Variant,polymerase ribozyme fitness (log ratio)
1,A90C A121C,0.757
2,U7A C49U G71U,-0.851
3,C13U C56G C72A A105U,-2.1
4,C12A A18G C82A C101A U130G,-7.19
5,C15G C40A A121G U129C,-3.1
6,A66U C115U,-3.52
7,A41G A46C,-1.95
8,A2U U54A,-2.36
9,U78G C86G C101U,-1.51
10,G42U G52A C101U,-1.81
11,C22A A26G A83U,-3.1
12,G45U C73G,-0.942
13,A50G C70U,-0.709
14,U9C G36U G47U,-2.03
15,G44U C64U C102A,-2.68
16,C62A A75G,-1.22
17,C49U C73U A74U,-0.941
18,C72G C86U U130C,-0.236
19,U54A G71C A83C G120U,-0.105
20,C115U G122U,-1.31
21,A5C C56G C79A U106A,-2.63
22,C3G C70U C115U G127U,-4.54
23,C13U A29G G52U A74C,-1.84
24,U78C C89U G93U,-1.09

row,Variant,polymerase ribozyme fitness (log ratio)
1,G44A A50U G60A U132C,-2.42
2,G57C C104U,0.227
3,C4G C8U C72A U78A U87A,-2.03
4,U59C G117C,-3.91
5,A6G C73U G117C,-2.3
6,A2U C64U C124U,-1.49
7,U21A G52C C56A C76U C101U,-3.81
8,U54C,0.321
9,C20U C85U,-2.85
10,C11G C89A,-1.26
11,A74U A105C,-3.15
12,G10C C13U U78G C79U C89U,-0.171
13,G19C A43C G44C C64A A105C A111U,-7.06
14,U32C G77U U126G,-2.53
15,C20G G135U,-4.02
16,G60A A95U,-0.238
17,G63A G93U,-2.58
18,C114U A118U,-3.68
19,C13A A26C C56A G60U C88U G113U C115U,-6.95
20,G47C C62U,-1.21
21,C56U G120U C124A,1.41
22,C40U G71C,-1.58
23,C4A C12A C70U C86G G120U G128C,-2.75
24,C22G G44C,-4.3

row,Variant,polymerase ribozyme fitness (log ratio)
1,C82U U134G,0.46
2,G47A C72U A83U,-1.18
3,A41G U55A G58C G120U,-0.997
4,G71C C80U,-4.42
5,C22G A50C G60U C115A,-2.18
6,G77A C101A G117A,-3.06
7,G39U A119G,0.375
8,A37C C53G C62A,-1.57
9,A27U C114U,-4.39
10,A29U G45U C73U A95G U131A,-4.04
11,C3A G36A G71C C123G,-1.87
12,G42A C88A G110A,-4.27
13,U59C G110U,-1.54
14,A41U G58C C89G,-2.91
15,A26U A50C U55G,-4.51
16,C49U C73A U81G,-2.45
17,C13A A27U G47U,-3.3
18,G63U C72G,-3.89
19,A37U A74G A90C,-2.26
20,C4G A6C C8G G48U C72G C76G A95U C124U,-4.99
21,U7C G58A C70U U78C U116C U131G,-1.13
22,A5G C49U C70U C72U A121U U133G,0.312
23,G45A C79U,-1.01
24,G17U A27U G61U,-6.16

row,Variant,polymerase ribozyme fitness (log ratio)
1,U38A G57A G63A,-4.08
2,G36U C104A,-2.99
3,G61U U92G,-2.97
4,C12A C80A G120U,-0.968
5,C4A C102U C123A,-3.39
6,C4A G10U A84G,-2.55
7,C13G C64U A95G U112C C124U,0.563
8,C31G G52U G77A G117U,-6.19
9,C11G C56U A111U,-2.23
10,G61A U125G,-0.638
11,A46U C49U G63U C115U,-5.27
12,G10U G23A U30G U32A G35U G51A C70G,-6.22
13,A29U G61A G127C,-3.2
14,A2G C114U G120U,-3.07
15,U9A G127U,0.46
16,G77C C101A G127A,-2.16
17,A95C G110U,-2.32
18,U7G C34U G69U C123U U133C,1.52
19,C49U G52C G63U C124A,-0.717
20,C22A C82G U112G,-5.26
21,C80U C98U C115A C124G,-0.376
22,A16G C56A C72A C86G G110A U112A,-3.93
23,C22A C56A,-3.44

# From the RNAGym collection of RNA variant scans (doi:10.1073/pnas.2313332121)
